According to article PMC3948214 (Biochemistry, 2013):

Legend:
[1] = molecular target: HpFabZ (Helicobacter pylori) (UniProt B5Z920); test: SPR; conditions: cited from earlier work
[2] = molecular target: the molecule itself; test: crystal structure

HpFabZ (Helicobacter pylori), sequence (B5Z920 whole entry): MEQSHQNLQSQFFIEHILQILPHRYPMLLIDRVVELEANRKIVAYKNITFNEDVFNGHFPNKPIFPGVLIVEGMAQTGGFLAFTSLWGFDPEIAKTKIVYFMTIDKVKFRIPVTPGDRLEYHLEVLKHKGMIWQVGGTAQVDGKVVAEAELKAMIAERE
HpACP, sequence (B5Z6T1 whole entry): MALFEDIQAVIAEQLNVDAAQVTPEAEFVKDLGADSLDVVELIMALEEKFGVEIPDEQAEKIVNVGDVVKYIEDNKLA

Row | Molecule | Kd [1] [nM] | binding result [2]
1 | HpACP (from UniProt B5Z6T1) | 10 | 
2 | RifDH10, the dehydratase domain from the terminal module (module 10) of the rifamycin polyketide synthase (domain or fragment, Amycolatopsis mediterranei, UniProt O54593 2569-2872, looked up) ADTASDAVSLGLAGADHPLLGAVVQLPQSDGLVFTSRLSLRSHPWLADHAVRDVVIVPGTGLVELAVRAGDEAGCPVLDELVIEAPLVVPRRGGVRVQVALGGPADDGSRTVDVFSLREDADSWLRHATGVLVPENRPRGTAAFDFAAWPPPEAKPVDLTGAYDVLADVGYGYGPTFRAVRAVWRRGSGNTTETFAEIALPEDARAEAGRFGIHPALLDAALHSTMVSAAADTESYGDEVRLPFAWNGLRLHAAGASVLRVRVAKPERDSLSLEAVDESGGLVVTLDSLVGRPVSNDQLTTAAG |  | binds
